The source of these data is the DeepSol protein solubility set.

The data set can be described thus: soluble on expression in E. coli; label from the status in PepcDB or PDB records.
Consider “MGSDKIHHHHHHMHWRGEYSCLSDSWRVSTQEDGGRLQMLTFRSARPEDEDALYAISLATGDAGQDATPLYNDGRMVGHIYSVPYLRLWPDAVFVAEDEEGVCGYIAGALDTVLHEQRLEQEWWPHLRALYPDPGGDPQTWDADQRRAHFIHHPRNTPSWLTDPFPAHIHMNLLPRTQGKGGGTRLLSRWLDMARQNNVYGIHLGASERNHAGMRFWETRGFKHLDSHETPGSVWFGMALE”, for which the “soluble on expression in E. coli” value is recorded as “not soluble”. In the case of “MLGIHRYDENLPPDELARDYLERTLFVMERVKFHTLAHLDYPARYAKADFKANRDLIEKILVFLVKNEKALEINTAGLFKHGKPNPDYWIVEMYYDLGGRVVTIGSDAHESQHIGRG” it was “soluble”; in that of “MGSDKIHHHHHHMSAEDYKNLPVTVEKPIPVVYDLGNLAAFDSNVLDKNDLDSSNARREEKIKSLTRDNVQLLINQLLSLPMKTTTESVGGTGGQSSVMTLLQLPDPTTDLPREKPLPKAKAMTKWEKFAAKKGIKPKERAGKMIYDEASGEWVPKWGYKGANKKLDDQWLVEVDDKVKGTDNELIDPRTLNRAERKRLVKKNEKQQRRNMKNAL”, “not soluble”; in that of “GSHMGKDCIMHGYMSKMGNPFLTQWQRRYFYLFPNRLEWRGEGEAPQSLLTMEEIQSVEETQIKERKCLLLKIRGGKQFILQCDSDPELVQWKKELRDAYREAQQLVQRVPKMKNKPRS”, “soluble”. Turning to “MESNDSGGVAAKHGFLFQDCVAAYHVTRMLRDKTIRSVRCEVTDDIDIVSDGYIDFVQVKSTGKTRWNISDIVQNSKGADKKTIPCSSILHKSMQCESDLSLGRRYSIVTEEKVNKTLEYLTISPNARLDKPGRQELIDDLNKRTDNFLTDSGISVSDWIDAATWEVFSSLRELELLGIKNIRLASQDLHGVILSSETVAEDIWCRILDTVTRKGEHSRRIHSADDKSYLRPDLLEWFKQRVEDDQSRSGRKIYVKRDLPHILTPFRAPMASVCAKRKGQVLHQQYSLKKYRYKHIADNVCQWLDEVFLRPKEMSDIHKLTFIEKRERLKNSVFKSLHDVSEFLGRVLLHATIRQHHESQPIPCMLYVEKAGAEKILENVHIVRRDPEGDQLWIGFSELVTDINIAVRLPEIRDQLYEDISDCIDTARKKILDIKDDNYLLRHDIDEILDGSQPFDAHLDRFTFVLFVGYDSNLLTEPETPGFEDDLEKETAVLFEKFAADLIEDSPFANLCIHVFIYPAPSLERLTQLVDEKVREVV”, the “soluble on expression in E. coli” value is listed as “soluble”.

As to “MNGEVMDELIQKLERVSQTSFIGSGKLMELSELVEMHEADVVIFNSELSATQVRNISKIVDARIIDLEHHHHHH”, the “soluble on expression in E. coli” value was “not soluble”. In the case of “QDSKVFDPFLAAITPEIMPVKGKLAEKALPLIDQQLQGQPGSTVLLVSDGVNPATIKQYQAYFAGKPYQLLILAAGNTDIVSNNPMDLDSLQKLASQTNGRLVEVTVDNSDIEQLNRYVERNMQLNGESSMPWKD” it was “not soluble”; in that of “MGGSHHHHHHGMASALQRVSGLLSWTLSRVLWLSGLSEPGAARQPRIMEEKALEVYDLIRTIRDPEKPNTLEELEVVSESCVEVQEINEEEYLVIIRFTPTVPHCSLATLIGLCLRVKLQRCLPFKHKLEIYISEGTHSTEEDINKQINDKERVAAAMENPNLREIVEQCVLEPD”, “not soluble”; in that of “MTKIWTRDGFAENDPWVIETEEVKATGEQKPVLPLADFLVRAAESNDIGLGVLISPADDVNRLEPYLDRIDLVAVSFPAFNDGRGFSHASLLRSRLGFAGEVRAVGDVLIDQVPLMLRTGFTSFAVTNETAIRRLSENRLPEITVYYQPTALPATGGEAYSWRRRAAQ”, “not soluble”. In the case of “MVTREEFVARFGGVFEHSPFIAERAYDAGGAGLELTAKAVHGALCAQFRVASEAERLGVLRAHPDLAGKLAIAGELTADSRNEQAGAGLDRLSPQEHARFTQLNSAYTEKFGFPFIIAVKGLNRHDILSAFDTRIDNNAAQEFATATGQVEKIAWLRLASMLPEGLEHHHHHH” it was “soluble”; in that of “MTKSYDVWWQKGQESDDDMARDHQEAWERTIEMLDTSDIKGKTILDVGCNQGGFLRKLYDTTPFKEGVGIDLARLSLEKAETLKGERPLTYYLTDKPQETNRTFDTAVSTSVLYLIEDIPQHAQDLKEVLKPGGVYYASFADLTNNPSRQFMDDTINQYGATPSQNHSLKHIVDSFVDAGFEVAVMKEPVPDVIDLTHYSDFYLSPNDYLQTLYEESFLIKASVKEGIGKLEHHHHHH”, “soluble”.

As to “MVSVSEIRKAQRAEGPATILAIGTANPANCVEQSTYPDFYFKITNSEHKTELKEKFQRMCDKSMIKRRYMYLTEEILKENPNVCEYMAPSLDARQDMVVVEVPRLGKEAAVKAIKEWGQPKSKITHLIVCTTSGVDMPGADYQLTKLLGLRPYVKRYMMYQQGAFAGGTVLRLAKDLAENNKGARVLVVCSEVTAVTFRGPSDTHLDSLVGQALFGDGAAALIVGSDPVPEIEKPIFEMVWTAQTIAPDSEGAIDGHLREAGLTFHLLKDVPGIVSKNITKALVEAFEPLGISDYNSIFWIAHPGGPAILDQVEQKLALKPEKMNATREVLSEYGNMSSACVLFILDEMRKKSTQNGLKTTGEGLEWGVLFGFGPGLTIETVVLRSVAI”, the “soluble on expression in E. coli” value is listed as “soluble”. As for “MSQVLTTYETPVLPEWVDYNGHLRDAFYLLVFSYATDALMAHIGLDSQNRDASGHSLFTLECHLNFLHEVKEGARVEVRTQLLGHDRKRLHIHHALYLPGSGQALALSEQMLLHVSLDGPRSAPFEGEVLARVEALAEAHRALPVPEGVGRVIGLPPVR”, the “soluble on expression in E. coli” value is “not soluble”. In the case of “MNEDIDMLIIANDLKQRGRKSIISGKFIFINMANEYEYVVYPVNENKTLSVKELEEFVDFSNRIKKKGVIAIVDKYGDVTYYLLSEINLGKK”, the “soluble on expression in E. coli” value was “soluble”. On to “MNSALDFAFPATFPVKSSSVGGHRIASPGFSSRLRLCSLPPSSSIKAESCLKRDVHRQRSSLESMFCYDKPIPEEIIEEPVGLSMSEREIGDNQRCTCCEAKGALLCSTCSGTGLYVDSIMESQGIIVKVRCLGCGGSGNIMCKLCGGRGHVGH”, for which the “soluble on expression in E. coli” value was “not soluble”. For the sequence “MPSTVEKMETEEYGKPDPNRLTTKLFAEYDALHEKQQNGMDEKKTMELLEPSEVFEIYSPATMEIISIAKEEGDILSDQSLKFLNEALRYTVVPRGYSPQGVDARTTVKNVATITKDLVDIGKIVFEKFPKYLQFFGPFGSLLKDILDMTKPEKKDPVLEELGNLKSQLESLSQKMVVQFDELKAFMVEKDFYNNYAHKASLLFDYMIDCVATIDTKTKERFEECYNEIKPERYVRDMLIKLESDVTNPLKVSMAGDELTSKATFQKWKDVLNSTLSQFLLLECFAMGFLHPKDESDSKKIIEKITYYTTLVEQWEKHYLNDRPYWPKLKKYVERIQGEGSFDKDEDMATELKKGLDSILTEDNFYLYVFEKNVHYEIHVVKPEMVFVSTNRGKFSVIISRAFEHSEYTCGQYWKKLDNIMYRRIERSIWYALETHMKEFVQWAVASYAKNDFKGCSYFLAFSSRNVAVRWTRKHGAEKGPGFINWDGQLTVFNVTTGTWNMLYMVGE”, the “soluble on expression in E. coli” value is reported as “not soluble”. With “MSLKRIKTVLAATDLSAPARHAAMRAALLAGQTDAKLGLLHVVDLQLMEHLRSFAGRSGEAAERRLIGEAMKELERLATDMTHRWGSAVEVRLVVGAVLKEIVAHADTLDADLLVMGARGAGFVRELLLGSTTERVLRLITRPVLMVKQIPHGPYQRVLVAVDFSERSVAALRLARWVAPEAHFVVLNAFQPPLENKLRQGGADEFEIMELRDAARRDADARMDEVMAHAGFPAERLTRLVLPGPALDCVLEQEQEQDCDLIVVGKHGYGWIEEMLLGSLTKHLLALSSCDVLVASQSREGHHHHHH” the entry was “soluble”; with “MKIDYLTLFPEMFDGVLNHSIMKRAQENNKLQINTVNFRDYAINKHNQVDDYPYGGGQGMVLKPEPVFNAMEDLDVTEQTRVILMCPQGEPFSHQKAVELSKADHIVFICGHYEGYDERIRTHLVTDEISMGDYVLTGGELPAMTMTDAIVRLIPGVLGNEQSHQDDSFSDGLLEFPQYTRPREFKGLTVPDVLLSGNHANIDAWRHEQKLIRTYNKRPDLIEKYPLTNEDKQILERYKIGLKKG”, “not soluble”; with “MAHHHHHHMPLFCSSTTFMLKVRRAAVKTWKCFAFIAFVSSSMRYISCGFTADDNTKSKSCPFDALGISNNSDMTTVKAAYRSKCQTEHPDVGGTEEGFRRIRWAYESCCEKLVKTGPRSNSEFDGSSHESSSKQKDDEGDYTHSYYRYKSKDERYHEQRQMFYYLFSSVETRNDIDNLLSKALRSHCFDAIDVSEPLRLSLRNYHRVTGYGEHHLTSCFAAMEHWEEYTQRRADVTQYHIMLILYTDGPKPGLTAQLISEGVEAIMEQMCVKGIEYDDWSLTLAHKAYRVCPYPST”, “not soluble”. As to “MLMRQVLEEACLKSGFEVNSHRLQTQSRKPIDSSLPFRLTGLANNATLEMTQKEAVSENTIIELAIQTASGARHQKKVGVNQMLLDALKSFTSEFKEDLATTIDGSVPCIVYMNKRYTGAELAVNSLSSLGVASGKCLIRHMRVKLSDQELATMQAKLQEENERKKALDVNFVKLKAENAERDRLERLRQEAFDKDKESREKREQEQLRALIPEPASNIQDSTVMDTTESQQRDVLQEVPEQNPNSWSFDGPAFSRQVPQNTMRMEELNRLLERVDHSLATPAVESRMDAMVNALADGGRISLAEVRTRADVAMEQEQEEDPVEVFANPCDRQAVIYKKRARVQTTDEPMETEEFFEVGIEDVRNMQKDLRKAVRDQTQASFISKEYLAKKNRQLKLEAYKHTVIRISIGEHILQVYFNTAEQSSNLDLFLNNVLTRSGWKLMFTNLKVVTNELKNFVDIELAPKSTLIASFGGQTVNAADVVHNVIEVTPEKADAMSADWLSLNKTFMPFNSTVNDDRKQKRPQFQSSSSSSHSGPPAKSAMPKWLQTGKK”, the “soluble on expression in E. coli” value was “not soluble”. With “MVRVKICGITNLEDALFSVESGADAVGFVFYPKSKRYISPEDARRISVELPPFVFRVGVFVNEEPEKILDVASYVQLNAVQLHGEEPIELCRKIAERILVIKAVGVSNERDMERALNYREFPILLDTKTPEYGGSGKTFDWSLILPYRDRFRYLVLSGGLNPENVRSAIDVVRPFAVDVSSGVEAFPGKKDHDSIKMFIKNAKGL” the entry was “soluble”; with “MGSDKIHHHHHHMSNLSLDFSHNEFQPLAARMRPATLAQYIGQQHLLGAGKPLPRAIEAGQLHSMILWGPPGTGKTTLAELIGHYGQADVERISAVTSGIKEIREAIERARQNRNAGRRTILFVDEVHRFNKSQQDAFLPHIEDGTITFIGATTENPSFELNSALLSRARVYLLKALMAEDIEQVLLQAMSDSERGYGGLNIVLPAETGRMLAELVNGDARRALNSLEMMADMAEIDAQGMRILTPALLNEIAGERSARFDNKGDRYYDLISALHKSVRGSAPDAALYWYARIITAGGDPLYVARRLLAIASEDVGNADPRAMQVAISAWDCFTRVGPAEGERAIAQAIVYLACAPKSNAVYSAFKAAMQDAREKPDYDVPEHLCNAPTRLMKEMGLGAEYRYAHNEPNAYAAGESYFPPEMADTHYYAPTSRGLEGKIGEKLAWLATQDQNSPTKRYR”, “not soluble”.
